Experiments:
[1] = target: T1, fusion protein of region 399-540 of human ADAM28s added to the C-terminal of MBP (human); experiment: Western blotting of MBP fusion proteins
T1 chain: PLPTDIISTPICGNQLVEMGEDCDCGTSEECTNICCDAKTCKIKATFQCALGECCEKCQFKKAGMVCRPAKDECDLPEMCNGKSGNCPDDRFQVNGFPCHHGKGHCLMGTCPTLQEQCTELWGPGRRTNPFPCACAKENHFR

[2] = target: T2, fusion protein of region 491-540 of human ADAM28s added to the C-terminal of MBP (human); experiment: Western blotting of MBP fusion proteins
T2 construct: also called MBP-ADAM28s 491-540
T2 chain: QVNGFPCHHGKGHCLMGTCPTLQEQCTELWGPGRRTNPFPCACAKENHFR

[3] = target: T3, peptide #25 of the human ADAM28s peptide array (FTLENFSKWRGS) (human); experiment: peptide array, HRP-labeled antibody
T3 construct: 12-mer partial peptide of human ADAM28s, immobilized on an array
T3 peptide: FTLENFSKWRGS
Experimental: (§1) Specifically, as shown below, a peptide array consisting of peptides having the residue number of 12 amino acid residues with an offset of 3 amino acid residues were prepared for a sequence covering from the protease domain to the C-terminal of human ADAM28s. HRP-labeled anti-human ADAM28s antibody was reacted with the peptide array.

[4] = target: T4, peptide #26 of the human ADAM28s peptide array (ENFSKWRGSVLS) (human); experiment: peptide array, HRP-labeled antibody
T4 construct: 12-mer partial peptide of human ADAM28s, immobilized on an array
T4 peptide: ENFSKWRGSVLS
Experimental: as §1

B1: anti-human ADAM28 human antibody 211-14 (antibody, V domains shown)
VH: QVQLQQSGPGLVKPSQTLSLTCAISGDSVSSNTAAWGWIRQSPGRGLEWLGVIYYRSKWYNDYAVSVKSRITINPDTSKNQFSLQLNSVTPEDTAVYYCARYKESIPEYGFDFWGQGTLVTVSS
VL: DIVMTQSPLSLPVTPGEPASISCRSSQSLLYSNGYIYLNWYLQKPGQSPQLLIYLGSNRASGVPDRFSGSGSGTDFTLKISRVEAEDVGVYYCFQYGGSPLTFGQGTKVEIKR
notes: Clone from the HuCAL GOLD phage library, first made as Fab, then converted to IgG (heavy chain constant region IgG1)
binding result [1]: binds | binding result [2]: binds

B2: anti-human ADAM28 human antibody 211-12 (antibody, V domains shown)
VH: QVQLVQSGAEVKKPGESLKISCKGSGYSFTSYWIAWVRQMPGKGLEWMGIIYPSDSYTRYSPSFQGQVTISADKSISTAYLQWSSLKASDTAMYYCARWSWMGRGFDNWGQGTLVTVSS
VL: DIQMTQSPSSLSASVGDRVTITCRASQDISSYLNWYQQKPGKAPKLLIYGVSTLQSGVPSRFSGSGSGTDFTLTISSLQPEDFATYYCLQYDSLPSTFGQGTKVEIKR
notes: Clone from the HuCAL GOLD phage library, first made as Fab, then converted to IgG (heavy chain constant region IgG1) in HEK293T cells; It was HRP-labeled in the peptide array
binding result [3]: binds | binding result [4]: binds
